What was measured:
USF-1 = USF-1 (UniProt P22415); assay: co-immunoprecipitation, immunoblot; conditions: reference: wild type; sites T505
[1] = target: USF-1 overexpressed in 293FT cells (UniProt P22415)
[2] = target: USF-1 overexpressed in 293FT cells (UniProt P22415); remark: listed apart in the source

USF-1 overexpressed in 293FT cells, sequence (P22415 whole entry): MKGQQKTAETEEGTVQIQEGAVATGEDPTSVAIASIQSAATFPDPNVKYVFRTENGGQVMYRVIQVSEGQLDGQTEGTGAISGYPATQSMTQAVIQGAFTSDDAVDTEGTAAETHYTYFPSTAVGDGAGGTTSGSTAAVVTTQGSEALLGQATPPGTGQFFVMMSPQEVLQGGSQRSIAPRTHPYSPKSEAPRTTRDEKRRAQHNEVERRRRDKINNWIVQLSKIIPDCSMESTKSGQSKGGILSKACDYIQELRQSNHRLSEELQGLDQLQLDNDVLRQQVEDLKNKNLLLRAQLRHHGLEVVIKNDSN

binding against the reference (USF-1)	ChIP-qPCR enrichment at the FAS promoter (FAS promoter luc construct) upon insulin treatment [1]	FAS promoter (-444-FAS promoter-luciferase) activity in 293FT cells co-transfected with JMJD1C along with USF-1 [2]	Substance
lost			JMJD1C (from UniProt Q15652) T505A
	17 fold		JMJD1C T505D mutant, Q15652 1-2540
	12 fold	27 fold	WT JMJD1C, Q15652 1-2540
